According to paper PMC8163081 (Science Advances, 2021):
Blank lines part the entries; values can stand above or below the molecule they belong to.

Tests used:
hd-α-actinin-2 (human) [1] = biological target: hd-α-actinin-2 (human) (UniProt P35609); test: SEC-MALS
hd-α-actinin-2 (human) [2] = biological target: hd-α-actinin-2 (human) (UniProt P35609); test: ITC
α-actinin-2 (human) = α-actinin-2 (human) (UniProt P35609); test: ITC
α-actinin-2 [3] = biological target: T1, α-actinin-2 (human, UniProt P35609 1-894); test: SEC-MALS
T1 sequence (P35609 whole entry): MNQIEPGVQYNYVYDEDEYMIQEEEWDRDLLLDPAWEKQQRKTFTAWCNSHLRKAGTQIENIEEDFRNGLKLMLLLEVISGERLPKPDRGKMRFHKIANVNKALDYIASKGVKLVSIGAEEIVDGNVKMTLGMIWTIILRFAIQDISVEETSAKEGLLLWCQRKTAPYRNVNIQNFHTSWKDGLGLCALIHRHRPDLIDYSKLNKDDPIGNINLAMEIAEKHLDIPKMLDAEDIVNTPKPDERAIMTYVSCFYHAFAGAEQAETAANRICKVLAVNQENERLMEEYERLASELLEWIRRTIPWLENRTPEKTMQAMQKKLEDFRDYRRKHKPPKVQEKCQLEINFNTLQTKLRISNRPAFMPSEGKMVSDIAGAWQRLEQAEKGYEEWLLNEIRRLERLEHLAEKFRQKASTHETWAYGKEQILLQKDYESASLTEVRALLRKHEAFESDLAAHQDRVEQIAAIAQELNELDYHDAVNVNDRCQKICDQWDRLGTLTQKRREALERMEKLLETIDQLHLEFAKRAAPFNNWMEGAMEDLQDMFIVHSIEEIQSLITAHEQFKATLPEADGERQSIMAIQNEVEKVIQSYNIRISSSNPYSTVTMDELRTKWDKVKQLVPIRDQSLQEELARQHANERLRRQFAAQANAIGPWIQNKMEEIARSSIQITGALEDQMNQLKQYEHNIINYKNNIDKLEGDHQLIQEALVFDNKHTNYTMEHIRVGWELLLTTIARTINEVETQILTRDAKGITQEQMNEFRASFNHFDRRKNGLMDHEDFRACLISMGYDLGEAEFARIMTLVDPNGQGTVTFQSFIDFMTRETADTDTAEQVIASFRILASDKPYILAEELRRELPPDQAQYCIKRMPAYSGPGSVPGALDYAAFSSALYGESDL

[4] = biological target: α-actinin-2-yellow fluorescent protein (YFP) (human, UniProt P35609 1-894); test: FRET or BRET
α-actinin-2-yellow fluorescent protein (YFP), sequence (P35609 whole entry): as above

α-actinin-2 [5] = biological target: T1, α-actinin-2; test: ITC
[6] = biological target: human (nonmuscle) α-actinin-1 (human, UniProt P12814 1-892); test: SEC-MALS
human (nonmuscle) α-actinin-1, sequence (P12814 whole entry): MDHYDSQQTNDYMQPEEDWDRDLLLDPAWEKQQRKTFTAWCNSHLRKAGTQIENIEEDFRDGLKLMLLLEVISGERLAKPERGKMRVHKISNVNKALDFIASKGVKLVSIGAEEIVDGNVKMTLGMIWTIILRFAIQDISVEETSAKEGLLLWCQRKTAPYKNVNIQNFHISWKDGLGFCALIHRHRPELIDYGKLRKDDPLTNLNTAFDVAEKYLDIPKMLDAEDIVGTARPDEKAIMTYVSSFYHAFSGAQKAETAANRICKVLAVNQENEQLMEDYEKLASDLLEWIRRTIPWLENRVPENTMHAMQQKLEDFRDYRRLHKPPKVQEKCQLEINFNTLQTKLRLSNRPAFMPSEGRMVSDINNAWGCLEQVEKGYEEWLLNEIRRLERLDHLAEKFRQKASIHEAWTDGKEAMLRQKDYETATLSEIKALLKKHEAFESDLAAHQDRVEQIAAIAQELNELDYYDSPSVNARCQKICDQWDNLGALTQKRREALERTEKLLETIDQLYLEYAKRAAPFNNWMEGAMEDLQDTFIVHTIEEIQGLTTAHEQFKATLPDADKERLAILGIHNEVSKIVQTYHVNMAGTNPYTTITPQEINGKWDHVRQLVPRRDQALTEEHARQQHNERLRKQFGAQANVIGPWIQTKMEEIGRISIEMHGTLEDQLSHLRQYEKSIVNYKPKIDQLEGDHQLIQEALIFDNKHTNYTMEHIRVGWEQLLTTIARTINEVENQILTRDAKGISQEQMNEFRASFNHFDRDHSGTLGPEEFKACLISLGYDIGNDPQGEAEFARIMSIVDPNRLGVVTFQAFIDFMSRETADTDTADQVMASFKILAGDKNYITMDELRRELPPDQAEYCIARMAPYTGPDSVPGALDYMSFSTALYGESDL

rod-α-actinin-2 = rod-α-actinin-2 (human, UniProt P35609 274-746); test: SEC-MALS
rod-α-actinin-2, sequence (P35609 274-746): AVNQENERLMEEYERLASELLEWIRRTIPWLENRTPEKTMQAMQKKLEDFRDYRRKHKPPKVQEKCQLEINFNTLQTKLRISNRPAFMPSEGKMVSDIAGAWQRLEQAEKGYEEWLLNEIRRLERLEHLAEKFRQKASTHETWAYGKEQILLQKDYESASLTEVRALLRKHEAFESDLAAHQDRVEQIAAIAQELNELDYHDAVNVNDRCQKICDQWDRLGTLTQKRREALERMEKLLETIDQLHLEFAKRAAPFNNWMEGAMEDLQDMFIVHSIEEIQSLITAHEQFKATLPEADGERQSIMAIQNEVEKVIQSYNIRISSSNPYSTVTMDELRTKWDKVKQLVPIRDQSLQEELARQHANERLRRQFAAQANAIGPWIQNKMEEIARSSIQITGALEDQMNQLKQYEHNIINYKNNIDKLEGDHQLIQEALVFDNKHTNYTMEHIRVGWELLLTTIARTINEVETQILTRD

α-actinin-2 [7] = biological target: T1, α-actinin-2; test: peptide or protein array

hd-α-actinin-2 (human), sequence (P35609 19-894): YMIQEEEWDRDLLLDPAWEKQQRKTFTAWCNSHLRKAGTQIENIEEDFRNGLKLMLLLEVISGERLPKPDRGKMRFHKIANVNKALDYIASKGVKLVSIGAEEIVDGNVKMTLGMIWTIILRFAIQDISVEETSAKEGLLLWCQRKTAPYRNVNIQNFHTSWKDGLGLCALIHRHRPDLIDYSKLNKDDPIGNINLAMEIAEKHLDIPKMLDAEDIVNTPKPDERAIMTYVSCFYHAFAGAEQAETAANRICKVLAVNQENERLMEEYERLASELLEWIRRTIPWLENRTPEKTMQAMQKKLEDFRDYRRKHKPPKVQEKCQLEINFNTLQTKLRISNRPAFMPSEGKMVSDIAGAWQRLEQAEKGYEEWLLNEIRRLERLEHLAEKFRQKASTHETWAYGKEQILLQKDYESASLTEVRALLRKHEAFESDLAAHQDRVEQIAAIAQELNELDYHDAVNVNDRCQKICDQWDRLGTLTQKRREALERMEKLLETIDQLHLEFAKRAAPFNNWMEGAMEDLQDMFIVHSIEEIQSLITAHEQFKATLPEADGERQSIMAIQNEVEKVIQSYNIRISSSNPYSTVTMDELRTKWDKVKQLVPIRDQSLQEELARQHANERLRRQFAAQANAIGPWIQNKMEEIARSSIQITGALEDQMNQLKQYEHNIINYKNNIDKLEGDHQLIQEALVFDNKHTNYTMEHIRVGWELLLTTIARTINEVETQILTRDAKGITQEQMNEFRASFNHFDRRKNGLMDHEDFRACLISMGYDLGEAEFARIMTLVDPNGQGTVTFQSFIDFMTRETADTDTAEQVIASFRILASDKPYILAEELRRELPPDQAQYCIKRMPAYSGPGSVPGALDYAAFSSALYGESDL
α-actinin-2 (human), sequence (P35609 whole entry): as the sequence (P35609 whole entry) above

Molecule: trx-Δ91-FATZ-1 (domain or fragment)
Kd (α-actinin-2 (human)): 1500 nM
stoichiometry N (α-actinin-2 (human)): 1.3

B1: FATZ-2 (natural protein, human, UniProt Q9NPC6 1-264, looked up)
chain: MLSHNTMMKQRKQQATAIMKEVHGNDVDGMDLGKKVSIPRDIMLEELSHLSNRGARLFKMRQRRSDKYTFENFQYQSRAQINHSIAMQNGKVDGSNLEGGSQQAPLTPPNTPDPRSPPNPDNIAPGYSGPLKEIPPEKFNTTAVPKYYQSPWEQAISNDPELLEALYPKLFKPEGKAELPDYRSFNRVATPFGGFEKASRMVKFKVPDFELLLLTDPRFMSFVNPLSGRRSFNRTPKGWISENIPIVITTEPTDDTTVPESEDL
stoichiometry N (α-actinin-2 [3]): 2 FATZ molecules per α-actinin-2 dimer

B2: ECFP-tagged FATZ-2 (WT) (natural protein, human, UniProt Q9NPC6 1-264, looked up)
chain: MLSHNTMMKQRKQQATAIMKEVHGNDVDGMDLGKKVSIPRDIMLEELSHLSNRGARLFKMRQRRSDKYTFENFQYQSRAQINHSIAMQNGKVDGSNLEGGSQQAPLTPPNTPDPRSPPNPDNIAPGYSGPLKEIPPEKFNTTAVPKYYQSPWEQAISNDPELLEALYPKLFKPEGKAELPDYRSFNRVATPFGGFEKASRMVKFKVPDFELLLLTDPRFMSFVNPLSGRRSFNRTPKGWISENIPIVITTEPTDDTTVPESEDL
FRET ratio [4]: 0.087

B3: LM2 peptide (peptide, UniProt Q9NP98 216-240, looked up)
peptide: PKYKSFNRTAMPYGGYEKASKRMTF
Kd (α-actinin-2 [5]): 315 nM
stoichiometry N (α-actinin-2 [5]): 1.9

B4: FATZ-3 (natural protein, human, UniProt Q8TDC0 1-251, looked up)
chain: MIPKEQKGPVMAAMGDLTEPVPTLDLGKKLSVPQDLMMEELSLRNNRGSLLFQKRQRRVQKFTFELAASQRAMLAGSARRKVTGTAESGTVANANGPEGPNYRSELHIFPASPGASLGGPEGAHPAAAPAGCVPSPSALAPGYAEPLKGVPPEKFNHTAISKGYRCPWQEFVSYRDYQSDGRSHTPSPNDYRNFNKTPVPFGGPLVGGTFPRPGTPFIPEPLSGLELLRLRPSFNRVAQGWVRNLPESEEL
stoichiometry N (α-actinin-2 [3]): 2 FATZ molecules per α-actinin-2 dimer

B5: FATZ-1 (filamin-, α-actinin-, and telethonin-binding protein of the Z-disk) (natural protein, human, UniProt Q9NP98 1-299, looked up)
chain: MPLSGTPAPNKKRKSSKLIMELTGGGQESSGLNLGKKISVPRDVMLEELSLLTNRGSKMFKLRQMRVEKFIYENHPDVFSDSSMDHFQKFLPTVGGQLGTAGQGFSYSKSNGRGGSQAGGSGSAGQYGSDQQHHLGSGSGAGGTGGPAGQAGRGGAAGTAGVGETGSGDQAGGEGKHITVFKTYISPWERAMGVDPQQKMELGIDLLAYGAKAELPKYKSFNRTAMPYGGYEKASKRMTFQMPKFDLGPLLSEPLVLYNQNLSNRPSFNRTPIPWLSSGEPVDYNVDIGIPLDGETEEL
stoichiometry N (α-actinin-2 [3]): 2 FATZ molecules per α-actinin-2 dimer

B6: ECFP-tagged FATZ-1 (WT FATZ-1) (natural protein, human, UniProt Q9NP98 1-299, looked up)
chain: MPLSGTPAPNKKRKSSKLIMELTGGGQESSGLNLGKKISVPRDVMLEELSLLTNRGSKMFKLRQMRVEKFIYENHPDVFSDSSMDHFQKFLPTVGGQLGTAGQGFSYSKSNGRGGSQAGGSGSAGQYGSDQQHHLGSGSGAGGTGGPAGQAGRGGAAGTAGVGETGSGDQAGGEGKHITVFKTYISPWERAMGVDPQQKMELGIDLLAYGAKAELPKYKSFNRTAMPYGGYEKASKRMTFQMPKFDLGPLLSEPLVLYNQNLSNRPSFNRTPIPWLSSGEPVDYNVDIGIPLDGETEEL
FRET ratio [4]: 0.085

B8: FATZ-1 peptide comprising residues 217 to 231 (peptide array) (peptide, UniProt Q9NP98 217-231, looked up)
peptide: KYKSFNRTAMPYGGY
binding result (α-actinin-2 [7]): binds

Now from value to molecule:

stoichiometry N (Δ91-FATZ-1 per hd-α-actinin-2) (hd-α-actinin-2 (human) [1]): 1
Kd (hd-α-actinin-2 (human) [2]): 260 nM
stoichiometry N (Δ91-FATZ-1 per hd-α-actinin-2) (hd-α-actinin-2 (human) [2]): 1
Molecule: Δ91-FATZ-1 (from UniProt Q9NP98 92-299) (domain or fragment)

Kd1 (two-site binding model, first binding event) (α-actinin-2 (human)): 7.8 nM
Kd2 (two-site binding model, second binding event) (α-actinin-2 (human)): 408 nM
Molecule: Δ91-FATZ-1-trx (domain or fragment)

dH (first binding event) (α-actinin-2 [5]): -111 kJ/mol
stoichiometry N [6]: 2 Δ91-FATZ-1 per α-actinin-1 (2:1 complex)
stoichiometry N (α-actinin-2 [3]): 2 Δ91-FATZ-1 per α-actinin-2 dimer
stoichiometry N (rod-α-actinin-2): 2 Δ91-FATZ-1 per rod-α-actinin-2 dimer
B7: Δ91-FATZ-1 (domain or fragment, human, UniProt Q9NP98 92-299, looked up)
chain: PTVGGQLGTAGQGFSYSKSNGRGGSQAGGSGSAGQYGSDQQHHLGSGSGAGGTGGPAGQAGRGGAAGTAGVGETGSGDQAGGEGKHITVFKTYISPWERAMGVDPQQKMELGIDLLAYGAKAELPKYKSFNRTAMPYGGYEKASKRMTFQMPKFDLGPLLSEPLVLYNQNLSNRPSFNRTPIPWLSSGEPVDYNVDIGIPLDGETEEL
